The target in this assay is rKgp (Porphyromonas gingivalis) (UniProt Q51817). The experiment in a line: enzyme inhibition assay (chromogenic substrate).

A word on the Ki: it is the equilibrium dissociation constant of an inhibitor or competing ligand from its target. Lower therefore signals higher affinity. A word on the IC50: it is the concentration that gives 50% inhibition.

Sequence of rKgp (Porphyromonas gingivalis) (Q51817 25-1732): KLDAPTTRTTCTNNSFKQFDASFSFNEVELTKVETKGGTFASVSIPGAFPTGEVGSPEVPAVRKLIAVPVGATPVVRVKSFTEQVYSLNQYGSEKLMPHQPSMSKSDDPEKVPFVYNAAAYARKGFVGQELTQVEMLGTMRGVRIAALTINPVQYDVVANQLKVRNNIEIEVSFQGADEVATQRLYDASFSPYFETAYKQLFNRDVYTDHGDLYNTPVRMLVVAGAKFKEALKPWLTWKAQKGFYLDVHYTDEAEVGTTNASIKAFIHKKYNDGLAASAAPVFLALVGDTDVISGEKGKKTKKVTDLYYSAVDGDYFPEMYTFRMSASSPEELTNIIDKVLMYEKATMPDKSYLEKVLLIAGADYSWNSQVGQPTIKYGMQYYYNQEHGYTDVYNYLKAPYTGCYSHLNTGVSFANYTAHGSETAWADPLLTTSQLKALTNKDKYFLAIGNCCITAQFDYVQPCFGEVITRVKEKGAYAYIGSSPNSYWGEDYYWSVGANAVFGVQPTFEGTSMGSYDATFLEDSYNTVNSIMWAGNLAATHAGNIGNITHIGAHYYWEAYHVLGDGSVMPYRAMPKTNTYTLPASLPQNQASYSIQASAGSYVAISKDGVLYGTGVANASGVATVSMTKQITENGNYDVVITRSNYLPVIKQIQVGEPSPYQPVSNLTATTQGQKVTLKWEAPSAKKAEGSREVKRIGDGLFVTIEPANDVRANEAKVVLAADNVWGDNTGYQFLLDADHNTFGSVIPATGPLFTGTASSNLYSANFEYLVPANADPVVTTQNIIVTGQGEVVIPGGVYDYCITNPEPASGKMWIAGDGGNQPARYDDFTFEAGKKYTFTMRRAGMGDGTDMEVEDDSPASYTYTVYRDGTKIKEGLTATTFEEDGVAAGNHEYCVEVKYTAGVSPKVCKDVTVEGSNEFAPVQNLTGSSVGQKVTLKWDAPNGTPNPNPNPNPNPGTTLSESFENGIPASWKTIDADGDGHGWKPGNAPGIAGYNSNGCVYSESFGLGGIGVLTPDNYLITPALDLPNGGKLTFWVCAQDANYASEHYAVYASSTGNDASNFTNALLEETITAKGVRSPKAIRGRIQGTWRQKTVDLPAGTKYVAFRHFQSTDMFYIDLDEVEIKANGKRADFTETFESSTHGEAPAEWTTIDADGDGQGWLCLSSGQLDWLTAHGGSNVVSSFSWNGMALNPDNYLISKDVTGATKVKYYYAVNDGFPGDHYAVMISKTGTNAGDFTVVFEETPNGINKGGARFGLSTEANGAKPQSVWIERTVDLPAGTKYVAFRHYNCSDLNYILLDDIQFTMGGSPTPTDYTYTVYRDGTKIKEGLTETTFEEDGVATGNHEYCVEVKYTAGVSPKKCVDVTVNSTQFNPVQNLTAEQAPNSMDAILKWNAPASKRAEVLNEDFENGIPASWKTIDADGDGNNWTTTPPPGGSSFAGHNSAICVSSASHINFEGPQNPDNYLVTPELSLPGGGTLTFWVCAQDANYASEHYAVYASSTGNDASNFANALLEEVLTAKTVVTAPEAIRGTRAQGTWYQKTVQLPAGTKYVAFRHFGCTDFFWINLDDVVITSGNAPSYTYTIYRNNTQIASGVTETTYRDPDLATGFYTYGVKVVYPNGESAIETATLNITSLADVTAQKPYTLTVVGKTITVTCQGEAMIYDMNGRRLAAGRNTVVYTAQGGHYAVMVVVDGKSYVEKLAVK

Regarding “recombinant Kgp propeptide (rKgp-PP) (from UniProt Q51817) (domain or fragment)”, the inhibitory constant (Ki) came out at 37.5 µM. In turn, “recombinant RgpB propeptide (rRgpB-PP) (from UniProt P95493 25-229) (domain or fragment)” returned an IC50 of 11 µM.

The record behind these values is PMC10319874 (Scientific Reports, 2023).
